Reference: the DeepSol protein solubility set

Assay: soluble on expression in E. coli; label from the status in PepcDB or PDB records

Sequence | soluble on expression in E. coli
MLVAQHTVYFPDAFLTQMREAMPSTLSFDDFLAACQRPLRRSIRVNTLKTSVADFLRLTAPYGWTLTPIPWCEEGFWIERDDEDALPLGSTAEHLSGLFYIQEASSMLPVAALFADGNAPQRVMDVAAAPGSKTTQIAARMNNEGAILANEFSASRVKVLHANISRCGISNVALTHFDGRVFGAALPEMFDAILLDAPCSGEGVVRKDPDALKNWSPESNQEIAATQRELIDSAFHALRSGGTLVYSTCTLNREENESVCLWLKETYPDAVEFLPLGDLFPGANKALTEEGFLHVFPQIYDCEGFFVARLRKTQAIPALPTPKYKVGNFPFSPVKDREAAQIRQAAASVGLNWDGNLRLWQRDKEVWLFPVGIEALIGKVRFSRLGIKLAETHNKGYRWQHEAVIALASPDNENAFELTPQEAEEWYRGRDVYPQAAPVADDVLVTFQHQPIGLAKRIGSRLKNSYPRELVRDGKLFTSNA | soluble
MTTHLPSTSQNGEEISAEQFNRIFHERNVIVLDCRSNGDSVKRANRFFCSLRLPALLQRRLMGGSMRLSTVPDLKDLNNSPDQCPEVLLIPGDSEQDEQLSAALARNLKSNHYRHFVLGEPVKTLLSQFPTLRDAADENWNTTFQMNSMPGQASGQQASSGPLLNLNQLRLEGEDQGGKQRAEFPVKLTNFLYLGNAETAKNRDVLKKYSISHVINVTSNLPNTFEEDPNMRYLRISADDNASHNLTKFFPEAISFIDDARRNDSACLVHCLAGISRSVTICLAYLMKTEMCTLDSAYEWVQKRNASIAPNFHFMGQLTDYEKMLGLNSNRVGVSRQAVNFDVHFFCIFKLKKKEENSPESRILAETAV | not soluble
MAALIDTGIFFGFYSLKDVHHMDSVAIVVHAVEGKWGRLFVTNHILDETLTLLKYKKLPADKFLEGFVESGVLNIIYTDDEVERKALEVFKARVYEKGFSYTDAISEVVAEELKLKLISYDSRFSLPTIGRDYWKSLDESERKRISAILREKGIDG | soluble
MGSDKIHHHHHHMSLSSPASRPPLQIRATPVWSPQRDENAEHIVLSPDEQYELGRLGEIIEYRTAKLEILSQSEPADFLYLLIEGVVQACHSLKDGQRQIVAFYWPGDIFGLAEKGLYVNSSEAVTPCSVYRFPFRKLEKFLLEHPRIQQGFFVKAVHEIRTAQRHTITIGQLELPQRLAAFLVDCSEHDRYFDSESSTLSLPMLRYDIADYLGTSVEAVSRTFALLEKNGLVQRKGPRKLEISMKKLIDFSGIA | not soluble
MDKNINISVKVWRQKGPKEKGHFETYQLQNISQSASFLEMMDILNEQLIKEHKAPVVFDHDCREGICGMCSLYINGHPHGPDDSITTCQLHMRRFDDGDTITIEPWRSAGFPVIRDLMVDRSAYDKIIQSGGFVSVNTGGIPDANAIPISKKNADEAMDAAACIGCGACAAACKNGSAMLFVSAKVSQLALLPQGRIEAARRAKAMVAKMDELGFGNCTNTRACEMECPKNVSISHIARLNREYIVAKNRD | not soluble
MSEGITDIEESQIQTNYDKVVYKFDDMELDENLLRGVFGYGFEEPSAIQQRAIMPIIEGHDVLAQAQSGTGKTGTFSIAALQRIDTSVKAPQALMLAPTRELALQIQKVVMALAFHMDIKVHACIGGTSFVEDAEGLRDAQIVVGTPGRVFDNIQRRRFRTDKIKMFILDEADEMLSSGFKEQIYQIFTLLPPTTQVVLLSATMPNDVLEVTTKFMRNPVRILVKKDELTLEGIKQFYVNVEEEEYKYECLTDLYDSISVTQAVIFCNTRRKVEELTTKLRNDKFTVSAIYSDLPQQERDTIMKEFRSGSSRILISTDLLARGIDVQQVSLVINYDLPANKENYIHRIGRGGRFGRKGVAINFVTNEDVGAMRELEKFYSTQIEELPSDIATLLN | soluble
MGSDKIHHHHHHMSVLNAKECVSPITRSVKYHQQSAEIRALQLQSYKMAKMALDNNLKLVKDKKPAVILDLDETVLNTFDYAGYLIKNCIKYTPETWDKFEKEGSLTLIPGALDFLEYANSKGVKIFYISNRTQKNKAFTLKTLKSFKLPQVSEESVLLKEKGKPKAVRRELVAKDYAIVLQVGDTLHDFDAIFAKDAKNSQEQRAKVLQNAQKFGTEWIILPNSLYGTWEDEPIKAWQNKK | not soluble
